Assay results published in the supplement of paper PMC10567573.

B1: VENTX (parent)
chain: VFQHHQYLSPLERKRLAREMQLSE

Variants of: B1
Assay: protein stability index of a GFP-peptide fusion (GPS, HEK-293T) (PSI 1-6); higher = more stable
Conditions: c terminus: a fixed tail appended
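Also: lentivirally expressed fusions sorted by FACS into six bins by GFP to DsRed ratio, PSI derived from sequencing read proportions per bin multiplied by bin number.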

Variant	protein stability index
VFQHHQYDSPLERKRLAREMQLSE [L8D]	3.31
VFQHHQYSSPLERKRLAREMQLSE [L8S]	2.09
VFQHHQYGSPLERKRLAREMQLSE [L8G]	2.42
VFQHHQYPSPLERKRLAREMQLSE [L8P]	2.52
VFQHHQYISPLERKRLAREMQLSE [L8I]	3.02
VFQHHQYHSPLERKRLAREMQLSE [L8H]	2.75
VFQHHQYNSPLERKRLAREMQLSE [L8N]	2.72
VFQHHQYASPLERKRLAREMQLSE [L8A]	2.65
VFQHHQYCSPLERKRLAREMQLSE [L8C]	2.22
VFQHHQYESPLERKRLAREMQLSE [L8E]	3.66
VFQHHQYMSPLERKRLAREMQLSE [L8M]	2.55
VFQHHQYRSPLERKRLAREMQLSE [L8R]	2.25
VFQHHQYVSPLERKRLAREMQLSE [L8V]	2.41
VFQHHQYYSPLERKRLAREMQLSE [L8Y]	2.32
VFQHHQYTSPLERKRLAREMQLSE [L8T]	2.4
VFQHHQYWSPLERKRLAREMQLSE [L8W]	1.83
VFQHHQYQSPLERKRLAREMQLSE [L8Q]	2.89
VFQHHQYKSPLERKRLAREMQLSE [L8K]	3.6
VFQHHQYFSPLERKRLAREMQLSE [L8F]	2.62
VFQHHQYLPPLERKRLAREMQLSE [S9P]	2.88
VFQHHQYLLPLERKRLAREMQLSE [S9L]	2.22
VFQHHQYLDPLERKRLAREMQLSE [S9D]	2.73
VFQHHQYLAPLERKRLAREMQLSE [S9A]	2
VFQHHQYLVPLERKRLAREMQLSE [S9V]	2.08

Variant	protein stability index
VFQHHQYLQPLERKRLAREMQLSE [S9Q]	3.25
VFQHHQYLIPLERKRLAREMQLSE [S9I]	1.69
VFQHHQYLGPLERKRLAREMQLSE [S9G]	2.38
VFQHHQYLTPLERKRLAREMQLSE [S9T]	2.21
VFQHHQYLNPLERKRLAREMQLSE [S9N]	2.59
VFQHHQYLWPLERKRLAREMQLSE [S9W]	1.52
VFQHHQYLYPLERKRLAREMQLSE [S9Y]	2.21
VFQHHQYLRPLERKRLAREMQLSE [S9R]	2.64
VFQHHQYLEPLERKRLAREMQLSE [S9E]	2.86
VFQHHQYLMPLERKRLAREMQLSE [S9M]	2.33
VFQHHQYLHPLERKRLAREMQLSE [S9H]	2.38
VFQHHQYLCPLERKRLAREMQLSE [S9C]	2.17
VFQHHQYLKPLERKRLAREMQLSE [S9K]	2.39
VFQHHQYLFPLERKRLAREMQLSE [S9F]	1.99
VFQHHQYLSPLERKRLGREMQLSE [A17G]	2.69
VFQHHQYLSPLERKRLMREMQLSE [A17M]	2.32
VFQHHQYLSPLERKRLQREMQLSE [A17Q]	2.59
VFQHHQYLSPLERKRLHREMQLSE [A17H]	2.24
VFQHHQYLSPLERKRLPREMQLSE [A17P]	2.98
VFQHHQYLSPLERKRLNREMQLSE [A17N]	2.38
VFQHHQYLSPLERKRLKREMQLSE [A17K]	2.75
VFQHHQYLSPLERKRLDREMQLSE [A17D]	2.45
VFQHHQYLSPLERKRLVREMQLSE [A17V]	2.14
VFQHHQYLSPLERKRLTREMQLSE [A17T]	2.97

Variant	protein stability index
VFQHHQYLSPLERKRLIREMQLSE [A17I]	2.36
VFQHHQYLSPLERKRLRREMQLSE [A17R]	2.98
VFQHHQYLSPLERKRLSREMQLSE [A17S]	3.1
VFQHHQYLSPLERKRLWREMQLSE [A17W]	2.24
VFQHHQYLSPLERKRLFREMQLSE [A17F]	2.5
VFQHHQYLSPLERKRLCREMQLSE [A17C]	1.84
VFQHHQYLSPLERKRLLREMQLSE [A17L]	2.79
VFQHHQYLSPLERKRLEREMQLSE [A17E]	2.93
VFQHHQYLSFLERKRLAREMQLSE [P10F]	1.91
VFQHHQYLSALERKRLAREMQLSE [P10A]	2.62
VFQHHQYLSCLERKRLAREMQLSE [P10C]	2.32
VFQHHQYLSYLERKRLAREMQLSE [P10Y]	2.54
VFQHHQYLSMLERKRLAREMQLSE [P10M]	2.23
VFQHHQYLSNLERKRLAREMQLSE [P10N]	2.82
VFQHHQYLSLLERKRLAREMQLSE [P10L]	2.67
VFQHHQYLSDLERKRLAREMQLSE [P10D]	2.31
VFQHHQYLSKLERKRLAREMQLSE [P10K]	2.52
VFQHHQYLSTLERKRLAREMQLSE [P10T]	1.86
VFQHHQYLSELERKRLAREMQLSE [P10E]	2.91
VFQHHQYLSGLERKRLAREMQLSE [P10G]	2.23
VFQHHQYLSHLERKRLAREMQLSE [P10H]	2.73
VFQHHQYLSVLERKRLAREMQLSE [P10V]	2.63
VFQHHQYLSILERKRLAREMQLSE [P10I]	2.42
VFQHHQYLSQLERKRLAREMQLSE [P10Q]	2.46

Variant	protein stability index
VFQHHQYLSSLERKRLAREMQLSE [P10S]	2.89
VFQHHQYLSWLERKRLAREMQLSE [P10W]	1.96
VFQHHQYLSPLERKRSAREMQLSE [L16S]	2.8
VFQHHQYLSPLERKRVAREMQLSE [L16V]	2.75
VFQHHQYLSPLERKRKAREMQLSE [L16K]	2.52
VFQHHQYLSPLERKRTAREMQLSE [L16T]	2.71
VFQHHQYLSPLERKRQAREMQLSE [L16Q]	2.7
VFQHHQYLSPLERKRRAREMQLSE [L16R]	2.33
VFQHHQYLSPLERKRAAREMQLSE [L16A]	2
VFQHHQYLSPLERKRCAREMQLSE [L16C]	2.62
VFQHHQYLSPLERKRNAREMQLSE [L16N]	2.92
VFQHHQYLSPLERKRFAREMQLSE [L16F]	2.28
VFQHHQYLSPLERKRDAREMQLSE [L16D]	3.03
VFQHHQYLSPLERKRHAREMQLSE [L16H]	2.82
VFQHHQYLSPLERKRPAREMQLSE [L16P]	2.78
VFQHHQYLSPLERKRIAREMQLSE [L16I]	2.71
VFQHHQYLSPLERKRMAREMQLSE [L16M]	2.48
VFQHHQYLSPLERKREAREMQLSE [L16E]	3.1
VFQHHQYLSPLERKRGAREMQLSE [L16G]	2.9
VFQHHQYLSPLERKRYAREMQLSE [L16Y]	2.31
VFQHHQYLSPLERKRWAREMQLSE [L16W]	2.01
VFQHHQYLSPLERKLLAREMQLSE [R15L]	2.02
VFQHHQYLSPLERKMLAREMQLSE [R15M]	2.02
VFQHHQYLSPLERKYLAREMQLSE [R15Y]	2.04

Variant	protein stability index
VFQHHQYLSPLERKQLAREMQLSE [R15Q]	2.57
VFQHHQYLSPLERKWLAREMQLSE [R15W]	2.21
VFQHHQYLSPLERKALAREMQLSE [R15A]	1.79
VFQHHQYLSPLERKGLAREMQLSE [R15G]	2.6
VFQHHQYLSPLERKNLAREMQLSE [R15N]	2.85
VFQHHQYLSPLERKSLAREMQLSE [R15S]	1.97
VFQHHQYLSPLERKCLAREMQLSE [R15C]	1.99
VFQHHQYLSPLERKILAREMQLSE [R15I]	2.09
VFQHHQYLSPLERKPLAREMQLSE [R15P]	2.36
VFQHHQYLSPLERKELAREMQLSE [R15E]	2.41
VFQHHQYLSPLERKHLAREMQLSE [R15H]	2.54
VFQHHQYLSPLERKDLAREMQLSE [R15D]	2.6
VFQHHQYLSPLERKVLAREMQLSE [R15V]	1.92
VFQHHQYLSPLERKTLAREMQLSE [R15T]	2.97
VFQHHQYLSPLERKFLAREMQLSE [R15F]	1.72
VFQHHQYLSPLERKKLAREMQLSE [R15K]	2.44
VFQHHQYLSPLNRKRLAREMQLSE [E12N]	2.56
VFQHHQYLSPLIRKRLAREMQLSE [E12I]	2.66
VFQHHQYLSPLWRKRLAREMQLSE [E12W]	1.8
VFQHHQYLSPLVRKRLAREMQLSE [E12V]	2.74
VFQHHQYLSPLPRKRLAREMQLSE [E12P]	2.99
VFQHHQYLSPLLRKRLAREMQLSE [E12L]	2.13
VFQHHQYLSPLMRKRLAREMQLSE [E12M]	2.74
VFQHHQYLSPLCRKRLAREMQLSE [E12C]	1.98

Variant	protein stability index
VFQHHQYLSPLARKRLAREMQLSE [E12A]	1.96
VFQHHQYLSPLQRKRLAREMQLSE [E12Q]	2.33
VFQHHQYLSPLKRKRLAREMQLSE [E12K]	1.82
VFQHHQYLSPLDRKRLAREMQLSE [E12D]	2.39
VFQHHQYLSPLSRKRLAREMQLSE [E12S]	2.74
VFQHHQYLSPLRRKRLAREMQLSE [E12R]	2.45
VFQHHQYLSPLYRKRLAREMQLSE [E12Y]	2.19
VFQHHQYLSPLGRKRLAREMQLSE [E12G]	2.07
VFQHHQYLSPLFRKRLAREMQLSE [E12F]	2.58
VFQHHQYLSPLHRKRLAREMQLSE [E12H]	2.21
VFQHHQYLSPLTRKRLAREMQLSE [E12T]	2.08
VFQHHQYLSPLEFKRLAREMQLSE [R13F]	1.92
VFQHHQYLSPLEIKRLAREMQLSE [R13I]	2.26
VFQHHQYLSPLEQKRLAREMQLSE [R13Q]	2.94
VFQHHQYLSPLEKKRLAREMQLSE [R13K]	2.62
VFQHHQYLSPLENKRLAREMQLSE [R13N]	3.31
VFQHHQYLSPLEVKRLAREMQLSE [R13V]	2.4
VFQHHQYLSPLEAKRLAREMQLSE [R13A]	2.32
VFQHHQYLSPLELKRLAREMQLSE [R13L]	2.66
VFQHHQYLSPLEHKRLAREMQLSE [R13H]	2.07
VFQHHQYLSPLEYKRLAREMQLSE [R13Y]	1.77
VFQHHQYLSPLECKRLAREMQLSE [R13C]	2.45
VFQHHQYLSPLEWKRLAREMQLSE [R13W]	1.87
VFQHHQYLSPLEEKRLAREMQLSE [R13E]	2.44

Variant	protein stability index
VFQHHQYLSPLEPKRLAREMQLSE [R13P]	2.06
VFQHHQYLSPLEMKRLAREMQLSE [R13M]	2.43
VFQHHQYLSPLEDKRLAREMQLSE [R13D]	2.56
VFQHHQYLSPLESKRLAREMQLSE [R13S]	2.44
VFQHHQYLSPLEGKRLAREMQLSE [R13G]	1.83
VFQHHQYLSPLETKRLAREMQLSE [R13T]	2.32
VFQHHQYLSPLERNRLAREMQLSE [K14N]	2.83
VFQHHQYLSPLERLRLAREMQLSE [K14L]	2.19
VFQHHQYLSPLERRRLAREMQLSE [K14R]	2.67
VFQHHQYLSPLERYRLAREMQLSE [K14Y]	2.58
VFQHHQYLSPLERERLAREMQLSE [K14E]	3.3
VFQHHQYLSPLERQRLAREMQLSE [K14Q]	2.12
VFQHHQYLSPLERFRLAREMQLSE [K14F]	1.75
VFQHHQYLSPLERDRLAREMQLSE [K14D]	3.01
VFQHHQYLSPLERCRLAREMQLSE [K14C]	2.98
VFQHHQYLSPLERWRLAREMQLSE [K14W]	1.81
VFQHHQYLSPLERMRLAREMQLSE [K14M]	3.11
VFQHHQYLSPLERHRLAREMQLSE [K14H]	1.97
VFQHHQYLSPLERTRLAREMQLSE [K14T]	2.58
VFQHHQYLSPLERVRLAREMQLSE [K14V]	2.63
VFQHHQYLSPLERPRLAREMQLSE [K14P]	2.4
VFQHHQYLSPLERIRLAREMQLSE [K14I]	2.88
VFQHHQYLSPLERSRLAREMQLSE [K14S]	2.81
VFQHHQYLSPLERGRLAREMQLSE [K14G]	2.39

Variant	protein stability index
VFQHHQYLSPLERARLAREMQLSE [K14A]	2.67
VFQHHQYLSPKERKRLAREMQLSE [L11K]	3.03
VFQHHQYLSPPERKRLAREMQLSE [L11P]	2.1
VFQHHQYLSPWERKRLAREMQLSE [L11W]	2.84
VFQHHQYLSPDERKRLAREMQLSE [L11D]	2.97
VFQHHQYLSPCERKRLAREMQLSE [L11C]	2.4
VFQHHQYLSPEERKRLAREMQLSE [L11E]	3.41
VFQHHQYLSPSERKRLAREMQLSE [L11S]	2.64
VFQHHQYLSPRERKRLAREMQLSE [L11R]	2.31
VFQHHQYLSPVERKRLAREMQLSE [L11V]	2.53
VFQHHQYLSPTERKRLAREMQLSE [L11T]	2.93
VFQHHQYLSPAERKRLAREMQLSE [L11A]	3
VFQHHQYLSPQERKRLAREMQLSE [L11Q]	2.73
VFQHHQYLSPGERKRLAREMQLSE [L11G]	1.95
VFQHHQYLSPNERKRLAREMQLSE [L11N]	3.2
VFQHHQYLSPMERKRLAREMQLSE [L11M]	2.65
VFQHHQYLSPHERKRLAREMQLSE [L11H]	2.77
VFQHHQYLSPIERKRLAREMQLSE [L11I]	2.4
VFQHHQYLSPFERKRLAREMQLSE [L11F]	2.42
VFQHHQYLSPYERKRLAREMQLSE [L11Y]	2.66
